In patent publication US20250283065A1, “TRUNCATED POLYPEPTIDES HAVING PROTEIN LIGASE ACTIVITY AND METHODS OF PRODUCTION THEREOF” (NANYANG TECHNOLOGICAL UNIVERSITY, priority 2022, published 2025):

What was measured:
OaAEP1b-C247A-Δ351 = assay: Active site titration by FRET ligation assay with covalent inhibitor; assay type: biochemical, Oldenlandia affinis; details: 1 hour incubation with Ac-YVAD-cmk, enzyme 280 nM
Method: Active site titration: The procedure described in reference was followed. The enzyme preparation was diluted to a concentration of 280 nM using a buffer containing 20 mM sodium phosphate at pH 6.5, 5 mM 2-Mercaptoethanol. Solutions containing serial twofold dilution of inhibitor YVAD-cmk were prepared in a black microtiter plate (Greiner Bio-One) using buffer as diluent. The enzyme was subsequently added to the wells containing the inhibitor to a final volume of 50 μL. The plate was incubated for 1 hour at room temperature before adding FRET peptides (PIE {EDANS} YNAL (SEQ ID NO:18) and GIK {DABSYL} SIP (SEQ ID NO: 19)), which were mixed at a molar ratio of 1:3 giving a final enzyme: substrate molar ratio of 1:200. The EDANS fluorescence signal was measured with an excitation wavelength of 336 nm and an emission wavelength of 490 nm. Relative fluorescence units (RFU) of quenched EDANS signal were plotted against time. The value of the initial velocity (Vi) was determined from the slope of the RFU (t) curve. The measured value of Vi was subsequently normalized by dividing with the initial rate obtained in the absence of inhibitor (control V0). The calculated Vi/V0 ratio was plotted against inhibitor concentrations, generating an inhibition curve. […]

[1] = system: linear NH2-GLPVSTKPVATRNAL-COOH peptide substrate; assay: Peptide cyclization assay (MALDI-TOF MS); assay type: biochemical; details: 37° C., after twelve minutes of reaction time
Target sequence (as listed by the source): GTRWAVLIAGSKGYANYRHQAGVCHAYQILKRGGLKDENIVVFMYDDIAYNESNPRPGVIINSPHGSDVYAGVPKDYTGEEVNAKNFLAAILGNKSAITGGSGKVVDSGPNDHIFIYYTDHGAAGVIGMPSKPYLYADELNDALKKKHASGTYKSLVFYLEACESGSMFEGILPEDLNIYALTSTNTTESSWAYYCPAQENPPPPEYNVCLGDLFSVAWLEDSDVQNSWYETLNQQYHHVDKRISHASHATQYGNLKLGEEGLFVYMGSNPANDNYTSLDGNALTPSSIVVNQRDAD
Method: Peptide cyclization assay: The peptide used for cyclization assay was purchased commercially from GenScript, NH2-GLPVSTKPVATRNAL-COOH (SEQ ID NO:17). Cyclization assays were performed in 50 μl reaction mixtures containing 20 mM phosphate buffer, pH 6.5, ligases (40 nM) and peptide substrates (20 μM). Reaction was performed at 37° C., for 1 hour. The cyclization product was analyzed by MALDI-TOF MS (ABI 4800 MALDI TOF/TOF).
To evaluate the cyclization activity of the purified OaAEP1b-C247A-Δ351, the enzyme was tested against a linear NH2-GLPVSTKPVATRNAL-COOH (SEQ ID NO:17) peptide substrate (labelled “LS”) (FIG. 6A). The cyclization reaction was performed at 37° C., and samples were collected every two minutes. MALDI-TOF MS was subsequently utilized to detect a cyclized product (labelled “CP”). Successful cyclization carried out by the active ligase of the LS with a mass of 1524 Da would result in CP with a mass of 1321 Da (FIG. 6A). After twelve minutes of reaction time, OaAEP1b-C247A-Δ351 had converted the majority of the linear substrate to the circularized product. No LS peak could be detected compared to a high CP peak detected in the MALDI-TOF mass spectra of the reaction mixture.

B1: OaAEP1b-C247A-Δ351: truncated OaAEP1b-C247A construct, residues 352-474 deleted, D351 as C-terminus; constitutively active peptide asparaginyl ligase (protein)
chain: GTRWAVLIAGSKGYANYRHQAGVCHAYQILKRGGLKDENIVVFMYDDIAYNESNPRPGVIINSPHGSDVYAGVPKDYTGEEVNAKNFLAAILGNKSAITGGSGKVVDSGPNDHIFIYYTDHGAAGVIGMPSKPYLYADELNDALKKKHASGTYKSLVFYLEACESGSMFEGILPEDLNIYALTSTNTTESSWCYYCPAQENPPPPEYNVCLGDLFSVAWLEDSDVQNSWYETLNQQYHHVDKRISHASHATQYGNLKLGEEGLFVYMGSNPANDNYTSLDGNALTPSSIVVNQRDAD
- fraction of the measured protein concentration that is active and amenable to complete inhibition (OaAEP1b-C247A-Δ351): about 53%
- cyclization of linear substrate to cyclized product [1]: complete cyclization reaction
